# B1: cPAT-09: control PAT DNA sequence codon optimized to Arabidopsis thaliana (SEQ ID NO: 21); tested here in binary vector 18857 (nucleic acid)
# DNA: ATGTCTCCGGAGAGGAGACCAGTTGAGATTAGGCCAGCTACAGCAGCTGATATGGCCGCGGTTTGTGATATCGTTAACCATTACATTGAGACGTCTACAGTGAACTTTAGGACAGAGCCACAAACACCACAAGAGTGGATTGATGATCTAGAGAGGTTGCAAGATAGATACCCTTGGTTGGTTGCTGAGGTTGAGGGTGTTGTGGCTGGTATTGCTTACGCTGGGCCCTGGAAGGCTAGGAACGCTTACGATTGGACAGTTGAGAGTACTGTTTACGTGTCACATAGGCATCAAAGGTTGGGCCTAGGCTCCACATTGTACACACATTTGCTTAAGTCTATGGAGGCGCAAGGTTTTAAGTCAGTGGTTGCTGTTATAGGCCTTCCAAACGATCCATCTGTTAGGTTGCATGAGGCTCTAGGATACACAGCGCGGGGTACACTGCGCGCAGCTGGATACAAGCATGGTGGATGGCATGATGTTGGTTTTTGGCAAAGGGATTTTGAGTTGCCAGCTCCTCCAAGGCCAGTGAGGCCAGTTACCCAGATCTGA
# modifications: derived from Streptomyces viridochromogenes
# Experiments:
# immature embryos [1] = experiment: Second selection experiment, transformation frequency with 40 mg/L ammonium glufosinate or 5 mg/L bialaphos; format: cell-based, maize
# Description: 10 mg/L to 40 mg/L of ammonium glufosinate all had survivor transgenic plant candidates for the binary vector comprising PAT variant type 3b. […] A second experiment was performed using 40 mg/L ammonium glufosinate, or using the GS inhibitor bialaphos at 5 mg/L. For this experiment, following transformation the immature embryos were selected, plants were regenerated and rooted, and transgenic plants were identified so that transformation frequency could be calculated.
# immature embryos [2] = experiment: Kill curve, ammonium glufosinate concentration for selection, survival percentage; format: cell-based, maize; details: for % Survival: plants that rooted over immature embryos transformed
# Description: The expression cassette of PAT variant type 3b (SEQ ID NO: 13) was introduced into a binary vector, now referred to as 23419. Binary vector 18857 (described in Table 2), which expresses cPAT-09, was used as a control. […] For vector 23419, 75-86 immature embryos were transformed using Agrobacteria similar to the method described in Example 4. Selection was performed using 10-80 mg/L of ammonium glufosinate (Ignite®). Following selection, plantlets were regenerated and then transferred to rooting media. The survival percentage (%) is shown as the number of plants that rooted over the number of immature embryos initially transformed.
molecule,measurement,setting,value
B1,Total # Events,immature embryos [1]; 5 mg/L Bialaphos,7
same,Transformation frequency % (TF),immature embryos [1]; 5 mg/L Bialaphos,0.875%
same,Total # Events,immature embryos [1]; 40 mg/L ammonium glufosinate,5
same,Transformation frequency % (TF),immature embryos [1]; 40 mg/L ammonium glufosinate,0.625%
same,% Survival,immature embryos [2]; 10 mg/L ammonium glufosinate,1.3%
same,% Survival,immature embryos [2]; 20 mg/L ammonium glufosinate,1.3%
same,survival of selection (in words),immature embryos [2]; 40 mg/L ammonium glufosinate,did not survive selection
same,% Survival,immature embryos [2]; 40 mg/L ammonium glufosinate,0%
same,% Survival,immature embryos [2]; 80 mg/L ammonium glufosinate,0%
